Assay results: US20100048462A1, “TRUNCATED PTH PEPTIDES WITH A CYCLIC CONFORMATION” (Zealand Pharma A/S, priority 2006, published 2010)
Like-named read-outs stand apart in the source and are kept apart here. Each block holds one molecule with its values, some of them ahead of it. Bridge positions count the residues as written; N and C are the ends. Square brackets hold non-standard residues; d marks the D form. hArg = N=C(N)NCCCC[C@H](N)C(=O)O; Ac5c = NC1(C(=O)O)CCCC1; Aib = CC(C)(N)C(=O)O

Key:
Assay in all cases: cell-based or functional assay
Saos-2 PTH1R = Saos-2 PTH1R (UniProt Q03431)
[1] = target: PTH receptor 1 on MC3T3-E1 cells (murine) (UniProt P41593)
CYP2D6 = CYP2D6 (Homo sapiens, UniProt P10635)
CYP2D6, sequence (P10635 whole entry): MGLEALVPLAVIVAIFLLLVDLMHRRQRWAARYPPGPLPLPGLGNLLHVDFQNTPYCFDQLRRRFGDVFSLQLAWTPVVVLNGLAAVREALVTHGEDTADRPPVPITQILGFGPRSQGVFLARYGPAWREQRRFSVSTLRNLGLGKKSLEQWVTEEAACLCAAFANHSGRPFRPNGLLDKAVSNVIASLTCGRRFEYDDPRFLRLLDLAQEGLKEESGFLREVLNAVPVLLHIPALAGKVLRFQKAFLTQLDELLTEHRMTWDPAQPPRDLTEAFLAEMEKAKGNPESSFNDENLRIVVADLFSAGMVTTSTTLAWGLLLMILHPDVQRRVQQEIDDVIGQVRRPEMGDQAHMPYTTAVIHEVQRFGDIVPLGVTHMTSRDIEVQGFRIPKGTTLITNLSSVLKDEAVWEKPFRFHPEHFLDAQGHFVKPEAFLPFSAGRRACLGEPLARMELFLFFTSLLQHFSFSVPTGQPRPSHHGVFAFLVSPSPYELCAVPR

Saos-2 PTH1R, sequence (Q03431 27-593 limits assumed): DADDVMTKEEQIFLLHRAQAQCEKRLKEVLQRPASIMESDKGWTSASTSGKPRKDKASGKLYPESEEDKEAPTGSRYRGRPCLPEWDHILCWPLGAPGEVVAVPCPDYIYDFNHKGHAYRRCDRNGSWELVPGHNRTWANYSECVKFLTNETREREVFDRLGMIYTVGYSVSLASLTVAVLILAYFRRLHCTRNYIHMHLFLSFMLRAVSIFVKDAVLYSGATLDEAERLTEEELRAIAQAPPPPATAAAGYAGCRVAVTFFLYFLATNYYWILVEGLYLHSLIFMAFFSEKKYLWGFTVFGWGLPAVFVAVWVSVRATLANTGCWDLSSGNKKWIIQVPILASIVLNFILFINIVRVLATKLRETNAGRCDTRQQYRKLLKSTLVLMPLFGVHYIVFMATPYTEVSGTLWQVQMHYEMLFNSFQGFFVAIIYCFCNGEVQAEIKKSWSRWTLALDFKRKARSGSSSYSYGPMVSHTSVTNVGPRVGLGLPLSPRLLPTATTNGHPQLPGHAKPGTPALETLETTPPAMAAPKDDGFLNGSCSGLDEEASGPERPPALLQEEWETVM
PTH receptor 1 on MC3T3-E1 cells (murine), sequence (P41593 27-591): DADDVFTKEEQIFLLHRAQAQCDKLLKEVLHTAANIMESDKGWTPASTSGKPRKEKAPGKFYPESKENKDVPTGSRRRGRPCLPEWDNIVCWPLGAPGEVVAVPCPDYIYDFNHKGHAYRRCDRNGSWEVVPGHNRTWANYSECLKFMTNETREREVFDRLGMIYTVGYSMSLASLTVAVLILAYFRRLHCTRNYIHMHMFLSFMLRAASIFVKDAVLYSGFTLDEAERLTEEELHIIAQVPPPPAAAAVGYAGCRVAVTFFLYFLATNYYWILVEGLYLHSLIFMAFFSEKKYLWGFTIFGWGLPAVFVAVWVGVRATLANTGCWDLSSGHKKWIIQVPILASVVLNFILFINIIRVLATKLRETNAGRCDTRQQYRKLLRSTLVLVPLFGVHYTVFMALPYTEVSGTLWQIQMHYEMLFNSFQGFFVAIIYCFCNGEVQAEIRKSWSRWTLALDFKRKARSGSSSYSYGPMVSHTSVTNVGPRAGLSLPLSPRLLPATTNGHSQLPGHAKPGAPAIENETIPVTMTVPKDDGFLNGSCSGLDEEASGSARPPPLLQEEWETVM

Emax, cAMP efficacy assay in Saos-2 cells (33T, trifluoroacetate salt) (relative to control (SEQ ID NO: 32)) (Saos-2 PTH1R): 1.1
pEC50, cAMP efficacy assay in Saos-2 cells (33T, trifluoroacetate salt) (Saos-2 PTH1R): 7.88 -log(M)
EC50, cAMP in an osteoblast-like cell line (MC3T3-E1) [1]: 1 nM
Emax, cAMP efficacy assay in MC3T3-E1 cells [1]: 5 pmol/well
agonist potency relative to SEQ ID NO: 30, cAMP in MC3T3-E1 cells (fold stronger) [1]: 8
pEC50, cAMP efficacy assay in MC3T3-E1 cells [1]: 8.9 -log(M)
Molecule: (H-Ac5c-Val-Aib-Glu-Ile-Gln-Leu-Met-His-Gln-Har-Ala-Lys( )-Trp-Leu-Asp( )-NH2)2 (peptide)

Emax, cAMP efficacy assay in Saos-2 cells (30T, trifluoroacetate salt) (relative to control (SEQ ID NO: 32)) (Saos-2 PTH1R): 1.04
pEC50, cAMP efficacy assay in Saos-2 cells (30T, trifluoroacetate salt) (Saos-2 PTH1R): 7.09 -log(M)
CYP2D6 activity (% of vehicle), dextrorphan formation rate in human liver microsomes, 10 µM peptide (CYP2D6): 83 % of vehicle
Emax, cAMP efficacy assay in MC3T3-E1 cells [1]: 5 pmol/well
pEC50, cAMP efficacy assay in MC3T3-E1 cells [1]: 8 -log(M)
Molecule: H-Ac5c-Val-Aib-Glu-Ile-Gln-Leu-Met-His-Gln-Har-Ala-Lys( )-Trp-Leu-Asp( )-NH2 (peptide)

Emax, cAMP efficacy assay in MC3T3-E1 cells [1]: 4.4 pmol/well
Molecule: PTH(1-34) (peptide)

Emax, cAMP efficacy assay in Saos-2 cells (21T, trifluoroacetate salt) (relative to control (SEQ ID NO: 32)) (Saos-2 PTH1R): 1.4
pEC50, cAMP efficacy assay in Saos-2 cells (21T, trifluoroacetate salt) (Saos-2 PTH1R): 6.82 -log(M)
CYP2D6 activity (% of vehicle), dextrorphan formation rate in human liver microsomes, 10 µM peptide (CYP2D6): 92 % of vehicle
B1: H-Ac5c-Val-Aib-Glu-Ile-Gln-Leu-Val-His-Gln-Har-Ala-Lys( )-Trp-Leu-Asn-Asp( )-NH2 (peptide)
chain: H-[Ac5c]V[Aib]EIQLVHQ[hArg]AKWLND-NH2
modifications: lactam 13-17
SMILES: CC[C@H](C)[C@H](NC(=O)[C@H](CCC(=O)O)NC(=O)C(C)(C)NC(=O)[C@@H](NC(=O)C1(N)CCCC1)C(C)C)C(=O)N[C@@H](CCC(N)=O)C(=O)N[C@@H](CC(C)C)C(=O)N[C@H](C(=O)N[C@@H](Cc1c[nH]cn1)C(=O)N[C@@H](CCC(N)=O)C(=O)N[C@@H](CCCCNC(=N)N)C(=O)N[C@@H](C)C(=O)N[C@H]1CCCCNC(=O)C[C@@H](C(N)=O)NC(=O)[C@H](CC(N)=O)NC(=O)[C@H](CC(C)C)NC(=O)[C@H](Cc2c[nH]c3ccccc23)NC1=O)C(C)C

Emax, cAMP efficacy assay in Saos-2 cells (31T, trifluoroacetate salt) (relative to control (SEQ ID NO: 32)) (Saos-2 PTH1R): 1.07
pEC50, cAMP efficacy assay in Saos-2 cells (31T, trifluoroacetate salt) (Saos-2 PTH1R): 7.66 -log(M)
CYP2D6 activity (% of vehicle), dextrorphan formation rate in human liver microsomes, 10 µM peptide (CYP2D6): 22 % of vehicle
Emax, cAMP efficacy assay in MC3T3-E1 cells [1]: 4.5 pmol/well
pEC50, cAMP efficacy assay in MC3T3-E1 cells [1]: 8.4 -log(M)
B2: H-Ac5c-Val-Aib-Glu-Ile-Gln-Leu-Met-His-Gln-Har-Ala-Lys-Trp-NH2 (peptide)
chain: H-[Ac5c]V[Aib]EIQLMHQ[hArg]AKW-NH2
SMILES: CC[C@H](C)[C@H](NC(=O)[C@H](CCC(=O)O)NC(=O)C(C)(C)NC(=O)[C@@H](NC(=O)C1(N)CCCC1)C(C)C)C(=O)N[C@@H](CCC(N)=O)C(=O)N[C@@H](CC(C)C)C(=O)N[C@@H](CCSC)C(=O)N[C@@H](Cc1c[nH]cn1)C(=O)N[C@@H](CCC(N)=O)C(=O)N[C@@H](CCCCNC(=N)N)C(=O)N[C@@H](C)C(=O)N[C@@H](CCCCN)C(=O)N[C@@H](Cc1c[nH]c2ccccc12)C(N)=O

Emax, cAMP efficacy assay in Saos-2 cells (2A, acetate salt) (relative to control (SEQ ID NO: 32)) (Saos-2 PTH1R): 0.99
Emax, cAMP efficacy assay in Saos-2 cells (2C, chloride salt) (relative to control (SEQ ID NO: 32)) (Saos-2 PTH1R): 0.94
Emax, cAMP efficacy assay in Saos-2 cells (2T, trifluoroacetate salt) (relative to control (SEQ ID NO: 32)) (Saos-2 PTH1R): 0.7
Emax, cAMP efficacy assay in Saos-2 cells (42T, trifluoroacetate salt) (relative to control (SEQ ID NO: 32)) (Saos-2 PTH1R): 1.03
pEC50, cAMP efficacy assay in Saos-2 cells (2A, acetate salt) (Saos-2 PTH1R): 8.2 -log(M)
pEC50, cAMP efficacy assay in Saos-2 cells (2C, chloride salt) (Saos-2 PTH1R): 8.18 -log(M)
pEC50, cAMP efficacy assay in Saos-2 cells (2T, trifluoroacetate salt) (Saos-2 PTH1R): 8.18 -log(M)
pEC50, cAMP efficacy assay in Saos-2 cells (42T, trifluoroacetate salt) (Saos-2 PTH1R): 7.68 -log(M)
CYP2D6 activity (% of vehicle), dextrorphan formation rate in human liver microsomes, 10 µM peptide (CYP2D6): 29 % of vehicle
CYP2D6 activity (% of vehicle), dextrorphan formation rate in human liver microsomes, 10 µM peptide (CYP2D6; record 2): 67 % of vehicle
EC50, cAMP in an osteoblast-like cell line (MC3T3-E1) [1]: 1 nM
Emax, cAMP efficacy assay in MC3T3-E1 cells [1]: 4.9 pmol/well
agonist potency relative to SEQ ID NO: 2, cAMP in MC3T3-E1 cells [1]: 6 fold weaker
pEC50, cAMP efficacy assay in MC3T3-E1 cells [1]: 9 -log(M)
Emax, cAMP efficacy assay in MC3T3-E1 cells ([1]; record 2): 5.7 pmol/well
pEC50, cAMP efficacy assay in MC3T3-E1 cells ([1]; record 2): 8.2 -log(M)
B3: H-Ac5c-Val-Aib-Glu-Ile-Gln-Leu-Met-His-Gln-Har-Ala-Lys-Trp-Leu-Asn-Asp-NH2 (peptide)
chain: H-[Ac5c]V[Aib]EIQLMHQ[hArg]AKWLND-NH2
SMILES: CC[C@H](C)[C@H](NC(=O)[C@H](CCC(=O)O)NC(=O)C(C)(C)NC(=O)[C@@H](NC(=O)C1(N)CCCC1)C(C)C)C(=O)N[C@@H](CCC(N)=O)C(=O)N[C@@H](CC(C)C)C(=O)N[C@@H](CCSC)C(=O)N[C@@H](Cc1c[nH]cn1)C(=O)N[C@@H](CCC(N)=O)C(=O)N[C@@H](CCCCNC(=N)N)C(=O)N[C@@H](C)C(=O)N[C@@H](CCCCN)C(=O)N[C@@H](Cc1c[nH]c2ccccc12)C(=O)N[C@@H](CC(C)C)C(=O)N[C@@H](CC(N)=O)C(=O)N[C@@H](CC(=O)O)C(N)=O
